# From article PMC10572626, “NMR-Based Characterization of the Interaction between Yeast Oxa1-CTD and Ribosomes” (International Journal of Molecular Sciences, 2023)
# Columns and labels:
# [1] = biological target: C-terminal domain of yeast S. cerevisiae mitochondrial oxidase assembly protein 1 (Oxa1-CTD, W320-K402) (S. cerevisiae) (UniProt P39952); assay: MST; Oxa1-CTD (20 µM, labelled with red fluorescent dye) kept constant; E. coli 70S or BSA titrated 1.21-20,000 nM; 20 mM HEPES pH 7.2, 75 mM NaCl, 20 mM MgCl2; three repeats
# [2] = biological target: the molecule itself; assay: SEC; Superdex 75 increase 10/300 GL in NMR buffer (20 mM HEPES pH 7.2, 75 mM NaCl, 20 mM MgCl2, 5 mM β-mercaptoethanol); oligomeric state inferred from elution volumes against standards of the column's manual
Kd [1] [nM],Molecule,stoichiometry N [2]
450,E. coli 70S ribosome (complex),
,"C-terminal domain of yeast S. cerevisiae mitochondrial oxidase assembly protein 1 (Oxa1-CTD, W320-K402) (domain or fragment, UniProt P39952 320-402, looked up, red fluorescent dye (Monolith NT protein labeling kit) in the MST assay; 15N-labelled in the NMR titration, Oxa1, yeast S. cerevisiae, C-terminal domain, residues W320 to K402 (pI = 10.5); cloned into pET-14b with an N-terminal 6x His-tag and a thrombin cleavage site; also called C-terminus of Oxa1; pET14b-Oxa1-CTD (W320-K402)) WVRSKLKITEVAKPRTPIAGASPTENMGIFQSLKHNIQKARDQAERRQLMQDNEKKLQESFKEKRQNSKIKIVHKSNFINNKK",2
